T1: murine HVEM (murine, UniProt Q80WM9 39-206, limits assumed)
T1 construct: also called Mouse
T1 sequence (looked up): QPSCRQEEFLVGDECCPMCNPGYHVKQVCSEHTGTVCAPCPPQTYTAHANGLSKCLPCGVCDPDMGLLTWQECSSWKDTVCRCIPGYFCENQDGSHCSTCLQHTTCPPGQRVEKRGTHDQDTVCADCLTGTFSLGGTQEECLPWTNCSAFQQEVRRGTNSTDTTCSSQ

T2: human HVEM (human, UniProt Q92956 39-202, limits assumed)
T2 sequence (looked up): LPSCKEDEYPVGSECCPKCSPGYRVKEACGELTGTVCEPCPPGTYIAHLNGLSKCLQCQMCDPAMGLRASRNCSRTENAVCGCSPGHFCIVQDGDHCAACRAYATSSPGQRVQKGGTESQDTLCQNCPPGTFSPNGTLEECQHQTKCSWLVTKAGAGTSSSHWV

T3: cynomolgus monkey HVEM (cynomolgus monkey, UniProt A0A2K5W0R1 39-203)
T3 sequence: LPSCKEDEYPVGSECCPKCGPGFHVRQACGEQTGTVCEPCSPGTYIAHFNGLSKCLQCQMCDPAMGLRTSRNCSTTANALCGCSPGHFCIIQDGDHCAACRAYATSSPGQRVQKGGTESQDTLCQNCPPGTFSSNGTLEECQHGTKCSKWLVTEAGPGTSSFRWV

B1: Ab_042 (H5S15-28A23A) (antibody, V domains shown)
VH: QVQLQQSGAELVKPGASVKMSCKAFGYTFTTYPIEWMKQNHGKSLEWIGNFHPYNDDTKYNEKFKGKAKLTVEKSSSTVYLELSRLTSDDSAVYYCARGGFAYWGQGTLVTVSA
VL: DVVMTQTPLSLPVSLGDQASISCRSSQSLVHSNGNTYLHWYLQKPGQSPKLLIYKVSNRFSGVPDRFSGSGSGTDFTLKISRVEAEDLGVYFCSQSTHVPFTFGSGTKLEIK
notes: also called Ab_42
B2: Ab_038 (H5S15-19A18A) (antibody, V domains shown)
VH: QVQLKESGPGLVAPSQSLSITCTVSGFSLTGYGVNWVRQPPGKGLEWLGMIWGDGGTDYNSALKSRLSISKDNSKSQVFLKMNSLQTDDTARYYCARDNYHTVVNGDYWGQGTSVTVSS
VL: ENVLTQSPAIMSASPGEKVTMTCRASSSVSSSYLHWYQQKSGASPKLWIYSTSNLASGVPARFSGSGSGTSYSLTISSVEAEDAATYYCQQYSGYPLTFGGGTKLEIK
notes: also called Ab_38
B3: Ab_061 (H5S19-13A16B) (antibody, V domains shown)
VH: QIQLVQSGPELKKPGETVKISCKASGYTFTNFGVNWVKQAPGKGLKWMGWINTYTGEPTYADDFKGRFAFSLETSASTAYLRINNLKNEDTATYFCARSYYANYAYWGQGTTLTVSS
VL: QIVLTQSPAIMSASPGEKVTLTCSASSSVDSSYLYWYQQKPGSSPKLWIYGTSNLASGVPARFSGSGSGTSYSLTISSMEAEDAASYFCHQWNSYPWTFGGGTKLEIK
notes: also called Ab_61
B4: Ab_075 (H5S20-12A10A) (antibody, V domains shown)
VH: QIQLVQSGPELKKPGETVKISCKASGYTFTNFGMNWVRQAPGKGLKWMGWINTYTGEPTYADDFKGRFAFSLETSASTAYLQINNLKNDDMATYFCARSLYGNRDYWGQGTTLTVSS
VL: QIVLTQSPAIMSASLGEEITLTCSASSSVSYMHWYQQRSGTSPKLLIYSTSNLASGVPSRFSGSGSGTFYSLTISSVEAEDAADYYCHQWSSYRTFGGGTKLEIK
notes: also called Ab_75
B5: Ab_060 (H5S19-8A16A) (antibody, V domains shown)
VH: QIQLVQSGPELKKPGETVKISCKASGYTFTNFGVNWVKQAPGKGLKWMGWINTYTGEPTYADDFKGRFAFSLETSASTAYLRINNLKNEDTASYFCARSYYANNAYWGQGTTLTVSS
VL: QIVLTQSPAIMSASPGEKVTLTCSASSSVDSSYLYWFQQKPGSSPKLWIYGTSNLASGVPARFSGSGSGTSYSLTISSMEAEDAASYFCHQWNSYPWTFGGGTKLEIK
notes: also called Ab_60
B6: Ab_062 (H5S19-16A18A) (antibody, V domains shown)
VH: QIQLVQSGPELKKPGETVKISCKASGYTFTNFGVNWVKQAPGKGLKWMGWINTYTGEPTYADDFKGRFAFSLETSASTAYLQINNLKNEDTATYFCVRSYYGNSGYWGQGTTLTVSS
VL: QIVLTQSPAIMSTSPGEKVTLTCSASSSVSSSYLYWYQQKPGSSPKLWIYSTSNLASGVPARFSGSGSGTSYSLTISSMEAEDAASYFCHQWSTYPWTFGGGTKLEIK
notes: also called Ab_62
B7: Ab_032 (H5S15-7A8A) (antibody, V domains shown)
VH: QIQLVQSGPELKKPGETVKISCKASGYTFTNYGMNWVKQAPGKGLKWVGWINTYTGEPTYAEDFKGRFAFSLETSASTAYLQINNLKNEDMATYFCARSFYGSEAYWGQGTLVTVSA
VL: QIVLTQSPAIMSASLGEEITLTCSASSSVSFMHWYQQKSGTSPKLLIYSTSNLASGVPSRFSGSGSGTFYSLTISSVEAEDAADYYCHQWSSYLWTFGGGAKLEIK
notes: also called Ab_32
B8: Ab_033 (H5S15-7B8A) (antibody, V domains shown)
VH: QIQLVQSGPELKKPGETVKISCKASGYTFTNYGMNWVKQAPGKGLKWVGWINTYTGEPTYADDFKGRFAFSLETSASTAYLQINNLKNEDMATYFCARSFYGSEAYWGQGTLVTVSA
VL: QIVLTQSPAIMSASLGEEITLTCSASSSVSFMHWYQQKSGTSPKLLIYSTSNLASGVPSRFSGSGSGTFYSLTISSVEAEDAADYYCHQWSSYLWTFGGGAKLEIK
notes: also called Ab_33
B9: Ab_040 (H5S15-23A21A) (antibody, V domains shown)
VH: EVQLQQSGTVLARPGASVKMSCKASGYTFTSFWMHWVKQRPGQGLEWIGAISPGNSETTYNQKFTGKAKLTAVTSTSTAYMELSSLTNEDSAVYYCTKIYYDYDDGYWGQGTTLTVSS
VL: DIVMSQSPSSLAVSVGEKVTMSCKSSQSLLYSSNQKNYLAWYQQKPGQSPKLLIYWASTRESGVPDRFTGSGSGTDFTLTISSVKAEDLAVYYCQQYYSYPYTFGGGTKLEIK
notes: also called Ab_40
B10: Ab_041 (H5S15-27A22A) (antibody, V domains shown)
VH: EVQLQQSGAELVKPGASVKLSCTASGFNIKDTYMHWVKQRPEQGLEWIGRIDPANGNTKYDPKFQGKATITADTSSNTAYLQLSSLTSEDTAVYYCARSRRYFDVWGAGTTVTVSS
VL: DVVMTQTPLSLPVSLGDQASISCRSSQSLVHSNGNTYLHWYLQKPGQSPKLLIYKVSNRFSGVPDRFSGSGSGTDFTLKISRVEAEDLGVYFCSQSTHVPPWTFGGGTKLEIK
notes: also called Ab_41
B11: Ab_037 (H5S15-13A15A) (antibody, V domains shown)
VH: QVQLKQSGPGLVQPSQSLSITCTVSGFSLTSYGVHWVRQSPGKGLEWLGVIWRGGSTDYNAAFMSRLSITKDNSKSQVFFKMNSLQADDTAIYYCAKTGFAYWGQGTLVTVSA
VL: QIVLTQSPAIMSASPGEKVTMTCSASSSVSYMHWYQQKSGTSPKRWIYDTSKLASGVPARFSGSGSGTSYSLTISSMEAEDAATYYCQQWSSNPLTFGAGTKLELK
notes: also called Ab_37
B12: Ab_039 (H5S15-21A19A) (antibody, V domains shown)
VH: QIQLVQSGPDLKKPGETVKISCKASGYTFTNYGMNWVKQAPGKDLKWMGWINTYTGEPTYADDFKGRFAFSLETSASTAYLQINNLKNDDTATYFCARSINYDSDEKWGQGTSVTVSS
VL: QIVLTQSPAIMSASLGERVTLTCTASSSVSSSYLHWYQQKPGSSPKLWIYDTSNLASGVPARFSGSGSGTSYSLTISSMEAEDAATYYCHQYHRSQWTFGGGTKLEIK
notes: also called Ab_39
B13: Ab_048 (H5S19-24A22A) (antibody, V domains shown)
VH: QVQLQQSGGELLRPGTSVKVSCKASGYAFTNYLIEWVKQRPGQGLEWIGVINPGSGGIYYKEKFKDKAILTADKSSSTAYMQLSSLTSDDSAVYFCARGDAMDFWGQGTSVTVSS
VL: DAVMTQTPLSLTVSLGDQASISCRSSQTLENTNGNTYLNWYLQKPGQSPQLLIYRVSNRFSGVLDRFSGSGSGTDFTLKISRVEAEDLGVYFCLQVTHVPYTFGGGTKLEIK
notes: also called Ab_48
B14: Ab_047 (H5S15-36A32A) (antibody, V domains shown)
VH: EVQLQQSGAELVKPGASVKLSCTASGFNIKDTYMHWVKQRPEQGLEWIGRIDPANGNTKYDPKFQGKATITADTSSNTAYLQLSSLTSEDTAVYYCARPYGNYGFAYWGQGTLVTVSA
VL: DIQMTQSPASLSASVGETVTITCRASGNIHNYLAWYQQKQGKSPQLLVYNAKTLADGVPSRFSGSGSGTQYSLKINSLQPEDFGSYYCQHFWSTFTFGSGTKLEIK
notes: also called Ab_47
B15: Ab_024 (H5S15-1A1A) (antibody, V domains shown)
VH: EVQLQQSGAELVKPGASVKLSCTASGFNIKDTYMHWVKQRPEQGLAWIGRIAPANGYTKYDPKFQGKATITTDTSSNTAYLHLSRLTSEDTAVYYCANYFGNTYDWFAFWGQGTLVTVSA
VL: ENVLTQSPAIMSASPGEKVTMTCSAGSSVSYMHWYQQKSSTSPKLWIYDTSKLPSGVPGRFSGSGSGNSYSLTISSMEAEDVATYYCFQGSGFPLTFGSGTKLEIK
notes: also called Ab_24

Key:
Test in all cases: ELISA
murine HVEM = target: T1, murine HVEM
human HVEM = target: T2, human HVEM
cynomolgus monkey HVEM = target: T3, cynomolgus monkey HVEM
Also: test concentration or dose not given here.

| Binder | ELISA signal (murine HVEM) | ELISA signal (human HVEM) | ELISA signal (cynomolgus monkey HVEM) |
| --- | --- | --- | --- |
| B1 | 0.046 | 0.049 | 0.062 |
| B2 | 0.043 | 0.049 | 0.06 |
| B3 | 0.043 | 2.98 | 3.03 |
| B4 | 0.048 | 3.04 | 3.04 |
| B5 | 0.044 | 3.09 | 3.03 |
| B6 | 0.045 | 2.95 | 2.98 |
| B7 | 0.045 | 3.04 | 2.87 |
| B8 | 0.043 | 3.1 | 3.02 |
| B9 | 0.05 | 0.069 | 0.098 |
| B10 | 0.045 | 0.059 | 0.076 |
| B11 | 0.043 | 0.059 | 0.06 |
| B12 | 0.042 | 2.87 | 3.03 |
| B13 | 0.044 | 2.5 | 0.826 |
| B14 | 0.051 | 1.19 | 0.743 |
| B15 | 0.044 | 0.048 | 0.063 |

Source: patent US20240317871A1 (IMMUNOMIC THERAPEUTICS, published 2024)
